The values below come from IntAct's records for PubMed 23572552.

The chains are these.
B1: TBC1 domain family member 22A (Homo sapiens), Q8WUA7 (parent)
chain: MASDGARKQFWKRSNSKLPGSIQHVYGAQHPPFDPLLHGTLLRSTAKMPTTPVKAKRVSTFQEFESNTSDAWDAGEDDDELLAMAAESLNSEVVMETANRVLRNHSQRQGRPTLQEGPGLQQKPRPEAEPPSPPSGDLRLVKSVSESHTSCPAESASDAAPLQRSQSLPHSATVTLGGTSDPSTLSSSALSEREASRLDKFKQLLAGPNTDLEELRRLSWSGIPKPVRPMTWKLLSGYLPANVDRRPATLQRKQKEYFAFIEHYYDSRNDEVHQDTYRQIHIDIPRMSPEALILQPKVTEIFERILFIWAIRHPASGYVQGINDLVTPFFVVFICEYIEAEEVDTVDVSGVPAEVLCNIEADTYWCMSKLLDGIQDNYTFAQPGIQMKVKMLEELVSRIDEQVHRHLDQHEVRYLQFAFRWMNNLLMREVPLRCTIRLWDTYQSEPDGFSHFHLYVCAAFLVRWRKEILEEKDFQELLLFLQNLPTAHWDDEDISLLLAEAYRLKFAFADAPNHYKK
B2: TBC1 domain family member 22B (Homo sapiens), Q9NU19 (parent)
chain: MAAENSKQFWKRSAKLPGSIQPVYGAQHPPLDPRLTKNFIKERSKVNTVPLKNKKASSFHEFARNTSDAWDIGDDEEEDFSSPSFQTLNSKVALATAAQVLENHSKLRVKPERSQSTTSDVPANYKVIKSSSDAQLSRNSSDTCLRNPLHKQQSLPLRPIIPLVARISDQNASGAPPMTVREKTRLEKFRQLLSSQNTDLDELRKCSWPGVPREVRPITWRLLSGYLPANTERRKLTLQRKREEYFGFIEQYYDSRNEEHHQDTYRQIHIDIPRTNPLIPLFQQPLVQEIFERILFIWAIRHPASGYVQGINDLVTPFFVVFLSEYVEEDVENFDVTNLSQDMLRSIEADSFWCMSKLLDGIQDNYTFAQPGIQKKVKALEELVSRIDEQVHNHFRRYEVEYLQFAFRWMNNLLMRELPLRCTIRLWDTYQSEPEGFSHFHLYVCAAFLIKWRKEILDEEDFQGLLMLLQNLPTIHWGNEEIGLLLAEAYRLKYMFADAPNHYRR

Variants of B1 are the subject of one assay. As to conditions: with gcp60_human ACBD3, Q9H3P7.
Regarding MASDGARKQFWKRSNSKLPGSIQHVYGAQHPPFDPLLHGTLLRSTAKMPTTPVKAKRVSTFQEFESNTSDAWDAGEDDDELLAMAAESLNSEVVMETANRVLRNHSQRQGRPTLQEGPGLQQKPRPEAEPPSPPSGDLRLVKSVSESHTSCPAESASDAAPLAAAASLPHSATVTLGGTSDPSTLSSSALSEREASRLDKFKQLLAGPNTDLEELRRLSWSGIPKPVRPMTWKLLSGYLPANVDRRPATLQRKQKEYFAFIEHYYDSRNDEVHQDTYRQIHIDIPRMSPEALILQPKVTEIFERILFIWAIRHPASGYVQGINDLVTPFFVVFICEYIEAEEVDTVDVSGVPAEVLCNIEADTYWCMSKLLDGIQDNYTFAQPGIQMKVKMLEELVSRIDEQVHRHLDQHEVRYLQFAFRWMNNLLMREVPLRCTIRLWDTYQSEPDGFSHFHLYVCAAFLVRWRKEILEEKDFQELLLFLQNLPTAHWDDEDISLLLAEAYRLKFAFADAPNHYKK [Q163A;R164A;S165A;Q166A], the “effect of a mutation on the interaction” value was “with no effect”. On the same count and under the same terms, to MASDGARKQFWKRSNSKLPGSIQHVYGAQHPPFDPLLHGTLLRSTAKMPTTPVKAKRVSTFQEFESNTSDAWDAGEDDDELLAMAAAAANSEVVMETANRVLRNHSQRQGRPTLQEGPGLQQKPRPEAEPPSPPSGDLRLVKSVSESHTSCPAESASDAAPLQRSQSLPHSATVTLGGTSDPSTLSSSALSEREASRLDKFKQLLAGPNTDLEELRRLSWSGIPKPVRPMTWKLLSGYLPANVDRRPATLQRKQKEYFAFIEHYYDSRNDEVHQDTYRQIHIDIPRMSPEALILQPKVTEIFERILFIWAIRHPASGYVQGINDLVTPFFVVFICEYIEAEEVDTVDVSGVPAEVLCNIEADTYWCMSKLLDGIQDNYTFAQPGIQMKVKMLEELVSRIDEQVHRHLDQHEVRYLQFAFRWMNNLLMREVPLRCTIRLWDTYQSEPDGFSHFHLYVCAAFLVRWRKEILEEKDFQELLLFLQNLPTAHWDDEDISLLLAEAYRLKFAFADAPNHYKK [E87A;S88A;L89A] belongs “with no effect”. Same read-out and setting: for MASDGARKQFWKRSNSKLPGSIQHVYGAQHPPFDPLLHGTLLRSTAKMPTTPVKAKRVSTFQEFESNTSDAWDAGEDDDELLAMAAESLNSEVVMETANRVLRNHSQRQGRPTLQEGPGLQQKPRPEAEPPSPPSGDLRLVKSVSESHTSCPAESASDAAPLQRAQALPHSATVTLGGTSDPSTLSSSALSEREASRLDKFKQLLAGPNTDLEELRRLSWSGIPKPVRPMTWKLLSGYLPANVDRRPATLQRKQKEYFAFIEHYYDSRNDEVHQDTYRQIHIDIPRMSPEALILQPKVTEIFERILFIWAIRHPASGYVQGINDLVTPFFVVFICEYIEAEEVDTVDVSGVPAEVLCNIEADTYWCMSKLLDGIQDNYTFAQPGIQMKVKMLEELVSRIDEQVHRHLDQHEVRYLQFAFRWMNNLLMREVPLRCTIRLWDTYQSEPDGFSHFHLYVCAAFLVRWRKEILEEKDFQELLLFLQNLPTAHWDDEDISLLLAEAYRLKFAFADAPNHYKK [S165A;S167A] the value was “with no effect”; for MASDGARKQFWKRSNSKLPGSIQHVYGAQHPPFDPLLHGTLLRSTAKMPTTPVKAKRVSTFQEFESNTSDAWDAGEDDDEAAAMAAESLNSEVVMETANRVLRNHSQRQGRPTLQEGPGLQQKPRPEAEPPSPPSGDLRLVKSVSESHTSCPAESASDAAPLQRSQSLPHSATVTLGGTSDPSTLSSSALSEREASRLDKFKQLLAGPNTDLEELRRLSWSGIPKPVRPMTWKLLSGYLPANVDRRPATLQRKQKEYFAFIEHYYDSRNDEVHQDTYRQIHIDIPRMSPEALILQPKVTEIFERILFIWAIRHPASGYVQGINDLVTPFFVVFICEYIEAEEVDTVDVSGVPAEVLCNIEADTYWCMSKLLDGIQDNYTFAQPGIQMKVKMLEELVSRIDEQVHRHLDQHEVRYLQFAFRWMNNLLMREVPLRCTIRLWDTYQSEPDGFSHFHLYVCAAFLVRWRKEILEEKDFQELLLFLQNLPTAHWDDEDISLLLAEAYRLKFAFADAPNHYKK [L81A;L82A], “with no effect”. Take MASDGARKQFWKRSNSKLPGSIQHVYGAQHPPFDPLLHGTLLRSTAKMPTTPVKAKRVSTFQEFESNTSDAWDAGEDDDELLAMAAESLNSEVVMETANRVLRNHSQRQGRPTLQEGPGLQQKPRPEAEPPSPPSGDLRLVKSVSESHTSCPAESASDAAPLQRSQSLPHSATVTLGGTSDPSTLSSSALSEREASRLDKFKQLLAGPNTDLEELRRLSWSGIPKPVRPMTWKLLSGYLPANVDRRPATLQRKQKEYFAFIEHYYDSRNDEVHQDTYRQIHIDIPRMSPEALILQPKVTEIFERILFIWAIRHPASGYVAGINDLVTPFFVVFICEYIEAEEVDTVDVSGVPAEVLCNIEADTYWCMSKLLDGIQDNYTFAQPGIQMKVKMLEELVSRIDEQVHRHLDQHEVRYLQFAFRWMNNLLMREVPLRCTIRLWDTYQSEPDGFSHFHLYVCAAFLVRWRKEILEEKDFQELLLFLQNLPTAHWDDEDISLLLAEAYRLKFAFADAPNHYKK [Q320A]: the “effect of a mutation on the interaction” value was “with no effect”.

Variants of B2 are the subject of the next assay. As to conditions: with gcp60_human ACBD3, Q9H3P7.
As to MAAENSKQFWKRSAKLPGSIQPVYGAQHPPLDPRLTKNFIKERSKVNTVPLKNKKASEFHEFARNTSDAWDIGDDEEEDFSSPSFQTLNSKVALATAAQVLENHSKLRVKPERSQSTTSDVPANYKVIKSSSDAQLSRNSSDTCLRNPLHKQQSLPLRPIIPLVARISDQNASGAPPMTVREKTRLEKFRQLLSSQNTDLDELRKCSWPGVPREVRPITWRLLSGYLPANTERRKLTLQRKREEYFGFIEQYYDSRNEEHHQDTYRQIHIDIPRTNPLIPLFQQPLVQEIFERILFIWAIRHPASGYVQGINDLVTPFFVVFLSEYVEEDVENFDVTNLSQDMLRSIEADSFWCMSKLLDGIQDNYTFAQPGIQKKVKALEELVSRIDEQVHNHFRRYEVEYLQFAFRWMNNLLMRELPLRCTIRLWDTYQSEPEGFSHFHLYVCAAFLIKWRKEILDEEDFQGLLMLLQNLPTIHWGNEEIGLLLAEAYRLKYMFADAPNHYRR [S58E], the “effect of a mutation on the interaction” value is “with no effect”.
